Reference: patent publication US20200040059A1

Experiments:
[1] = biological target: PD-1 (Homo sapiens (Human)) (UniProt Q15116); assay: flow cytometry, Jurkat/PD-1 cells
[2] = biological target: PD-1 (Homo sapiens (Human)) (UniProt Q15116); assay: flow cytometry, Jurkat/PD-1 cells; vs wildtype PD-L2 IgV-Fc

PD-1 (Homo sapiens (Human)), sequence (Q15116 21-288 limits assumed): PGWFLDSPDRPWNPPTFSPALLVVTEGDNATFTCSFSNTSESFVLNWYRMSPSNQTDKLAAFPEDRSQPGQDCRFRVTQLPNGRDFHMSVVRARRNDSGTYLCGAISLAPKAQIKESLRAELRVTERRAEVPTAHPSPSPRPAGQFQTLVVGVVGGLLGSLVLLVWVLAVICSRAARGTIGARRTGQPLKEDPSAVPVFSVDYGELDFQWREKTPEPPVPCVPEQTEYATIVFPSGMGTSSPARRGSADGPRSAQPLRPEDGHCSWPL

Row | Binder | MFI at 50 nM [1] | Fold increase over wildtype PD-L2 IgV-Fc [2]
1 | variant PD-L2 IgV-Fc E59G, Q82R (Fc fusion, not shown: a dimerising Fc or GST; small tags and cut ends) LFTVTVPKELYIIEHGSNVTLECNFDTGSHVNLGAITASLQKVENDTSPHRERATLLEGQLPLGKASFHIPQVQVRDEGQYRCIIIYGVAWDYKYLTLK | 12700 | 1.29 fold
2 | variant PD-L2 IgV-Fc H15Q, S67L, R76G (Fc fusion, not shown: a dimerising Fc or GST; small tags and cut ends) LFTVTVPKELYIIEQGSNVTLECNFDTGSHVNLGAITASLQKVENDTSPHRERATLLEEQLPLGKALFHIPQVQVGDEGQYQCIIIYGVAWDYKYLTLK | 47200 | 4.8 fold
3 | variant PD-L2 IgV-Fc H15Q, E44D, R76G, I85F (Fc fusion, not shown: a dimerising Fc or GST; small tags and cut ends) LFTVTVPKELYIIEQGSNVTLECNFDTGSHVNLGAITASLQKVDNDTSPHRERATLLEEQLPLGKASFHIPQVQVGDEGQYQCIFIYGVAWDYKYLTLK | 2880 | 0.29 fold
4 | variant PD-L2 IgV-Fc H15Q, T47A, Q72H, R76G, I86T (Fc fusion, not shown: a dimerising Fc or GST; small tags and cut ends) LFTVTVPKELYIIEQGSNVTLECNFDTGSHVNLGAITASLQKVENDASPHRERATLLEEQLPLGKASFHIPHVQVGDEGQYQCIITYGVAWDYKYLTLK | 32100 | 3.26 fold
5 | variant PD-L2 IgV-Fc I13V, H15Q, R76G, I85F (Fc fusion, not shown: a dimerising Fc or GST; small tags and cut ends) LFTVTVPKELYIVEQGSNVTLECNFDTGSHVNLGAITASLQKVENDTSPHRERATLLEEQLPLGKASFHIPQVQVGDEGQYQCIFIYGVAWDYKYLTLK | 4740 | 0.48 fold
6 | variant PD-L2 IgV-Fc H15Q, R76G, I85F (SEQ ID NO 1500) (Fc fusion, not shown: a dimerising Fc or GST; small tags and cut ends) LFTVTVPKELYIIEQGSNVTLECNFDTGSHVNLGAITASLQKVENDTSPHRERATLLEEQLPLGKASFHIPQVQVGDEGQYQCIFIYGVAWDYKYLTLK | 2940 | 0.3 fold
7 | variant PD-L2 IgV-Fc H15Q, T47A, Q72H, R76G (Fc fusion, not shown: a dimerising Fc or GST; small tags and cut ends) LFTVTVPKELYIIEQGSNVTLECNFDTGSHVNLGAITASLQKVENDASPHRERATLLEEQLPLGKASFHIPHVQVGDEGQYQCIIIYGVAWDYKYLTLK | 16500 | 1.68 fold
8 | variant PD-L2 IgV-Fc H15Q, S39I, S67L, V89D (Fc fusion, not shown: a dimerising Fc or GST; small tags and cut ends) LFTVTVPKELYIIEQGSNVTLECNFDTGSHVNLGAITAILQKVENDTSPHRERATLLEEQLPLGKALFHIPQVQVRDEGQYQCIIIYGDAWDYKYLTLK | 45500 | 4.62 fold
9 | variant PD-L2 IgV-Fc I13V, E44D, Q82R, V89D (Fc fusion, not shown: a dimerising Fc or GST; small tags and cut ends) LFTVTVPKELYIVEHGSNVTLECNFDTGSHVNLGAITASLQKVDNDTSPHRERATLLEEQLPLGKASFHIPQVQVRDEGQYRCIIIYGDAWDYKYLTLK | 45200 | 4.59 fold
10 | variant PD-L2 IgV-Fc I13V, H15Q, E44D, V89D (Fc fusion, not shown: a dimerising Fc or GST; small tags and cut ends) LFTVTVPKELYIVEQGSNVTLECNFDTGSHVNLGAITASLQKVDNDTSPHRERATLLEEQLPLGKASFHIPQVQVRDEGQYQCIIIYGDAWDYKYLTLK | 24000 | 2.43 fold
11 | variant PD-L2 IgV-Fc H15Q, S67L, Q72H, R76G, V89D (Fc fusion, not shown: a dimerising Fc or GST; small tags and cut ends) LFTVTVPKELYIIEQGSNVTLECNFDTGSHVNLGAITASLQKVENDTSPHRERATLLEEQLPLGKALFHIPHVQVGDEGQYQCIIIYGDAWDYKYLTLK | 40200 | 4.08 fold
12 | variant PD-L2 IgV-Fc H15Q, S67L, R76G, I85F (Fc fusion, not shown: a dimerising Fc or GST; small tags and cut ends) LFTVTVPKELYIIEQGSNVTLECNFDTGSHVNLGAITASLQKVENDTSPHRERATLLEEQLPLGKALFHIPQVQVGDEGQYQCIFIYGVAWDYKYLTLK | 2870 | 0.29 fold
13 | variant PD-L2 IgV-Fc H15Q, K65R (Fc fusion, not shown: a dimerising Fc or GST; small tags and cut ends) LFTVTVPKELYIIEQGSNVTLECNFDTGSHVNLGAITASLQKVENDTSPHRERATLLEEQLPLGRASFHIPQVQVRDEGQYQCIIIYGVAWDYKYLTLK | 13500 | 1.37 fold
14 | variant PD-L2 IgV-Fc E44D (Fc fusion, not shown: a dimerising Fc or GST; small tags and cut ends) LFTVTVPKELYIIEHGSNVTLECNFDTGSHVNLGAITASLQKVDNDTSPHRERATLLEEQLPLGKASFHIPQVQVRDEGQYQCIIIYGVAWDYKYLTLK | 2930 | 0.3 fold
15 | variant PD-L2 IgV-Fc H15Q, Q72H, V89D (Fc fusion, not shown: a dimerising Fc or GST; small tags and cut ends) LFTVTVPKELYIIEQGSNVTLECNFDTGSHVNLGAITASLQKVENDTSPHRERATLLEEQLPLGKASFHIPHVQVRDEGQYQCIIIYGDAWDYKYLTLK | 12600 | 1.28 fold
16 | variant PD-L2 IgV-Fc H15Q, T47A, Q82R (Fc fusion, not shown: a dimerising Fc or GST; small tags and cut ends) LFTVTVPKELYIIEQGSNVTLECNFDTGSHVNLGAITASLQKVENDASPHRERATLLEEQLPLGKASFHIPQVQVRDEGQYRCIIIYGVAWDYKYLTLK | 65200 | 6.62 fold
17 | variant PD-L2 IgV-Fc H15Q, N32D, S67L, V89D (Fc fusion, not shown: a dimerising Fc or GST; small tags and cut ends) LFTVTVPKELYIIEQGSNVTLECNFDTGSHVDLGAITASLQKVENDTSPHRERATLLEEQLPLGKALFHIPQVQVRDEGQYQCIIIYGDAWDYKYLTLK | 25900 | 2.63 fold
18 | variant PD-L2 IgV-Fc H15Q (Fc fusion, not shown: a dimerising Fc or GST; small tags and cut ends) FTVTVPKELYIIEQGSNVTLECNFDTGSHVNLGAITASLQKVENDTSPHRERATLLEEQLPLGKASFHIPQVQVRDEGQYQCIIIYGVAWDYKYLTLK | 16000 | 1.63 fold
19 | variant PD-L2 IgV-Fc H15Q, Q72H, Q74R, R76G, I86T (Fc fusion, not shown: a dimerising Fc or GST; small tags and cut ends) FTVTVPKELYIIEQGSNVTLECNFDTGSHVNLGAITASLQKVENDTSPHRERATLLEEQLPLGKASFHIPHVRVGDEGQYQCIITYGVAWDYKYLTLK | 4050 | 0.41 fold
20 | variant PD-L2 IgV-Fc I13V, H15Q, S39I, E44D, S67L (Fc fusion, not shown: a dimerising Fc or GST; small tags and cut ends) FTVTVPKELYIVEQGSNVTLECNFDTGSHVNLGAITAILQKVDNDTSPHRERATLLEEQLPLGKALFHIPQVQVRDEGQYQCIIIYGVAWDYKYLTLK | 63500 | 6.45 fold
21 | variant PD-L2 IgV-Fc G28V, Q72H, R76G, I86T (Fc fusion, not shown: a dimerising Fc or GST; small tags and cut ends) FTVTVPKELYIIEHGSNVTLECNFDTVSHVNLGAITASLQKVENDTSPHRERATLLEEQLPLGKASFHIPHVQVGDEGQYQCIITYGVAWDYKYLTLK | 5560 | 0.57 fold

Results, then the binder that gave them:

Row | MFI at 50 nM [1] | Fold increase over wildtype PD-L2 IgV-Fc [2] | Binder
22 | 1410 | 0.14 fold | variant PD-L2 IgV-Fc N24D (Fc fusion, not shown: a dimerising Fc or GST; small tags and cut ends) LFTVTVPKELYIIEHGSNVTLECDFDTGSHVNLGAITASLQKVENDTSPHRERATLLEEQLPLGKASFHIPQVQVRDEGQYQCIIIYGVAWDYKYLTLK
23 | 31800 | 3.23 fold | variant PD-L2 IgV-Fc N32D, S67L, V89D (Fc fusion, not shown: a dimerising Fc or GST; small tags and cut ends) LFTVTVPKELYIIEHGSNVTLECNFDTGSHVDLGAITASLQKVENDTSPHRERATLLEEQLPLGKALFHIPQVQVRDEGQYQCIIIYGDAWDYKYLTLK
24 | 73400 | 7.46 fold | variant PD-L2 IgV-Fc I13V, H15Q, T47A, Q72H, R76G (Fc fusion, not shown: a dimerising Fc or GST; small tags and cut ends) LFTVTVPKELYIVEQGSNVTLECNFDTGSHVNLGAITASLQKVENDASPHRERATLLEEQLPLGKASFHIPHVQVGDEGQYQCIIIYGVAWDYKYLTLK
25 | 6830 | 0.69 fold | variant PD-L2 IgV-Fc S67L, I86T (Fc fusion, not shown: a dimerising Fc or GST; small tags and cut ends) LFTVTVPKELYIIEHGSNVTLECNFDTGSHVNLGAITASLQKVENDTSPHRERATLLEEQLPLGKALFHIPQVQVRDEGQYQCIITYGVAWDYKYLTLK
26 | 45000 | 4.57 fold | variant PD-L2 IgV-Fc Q82R, V89D (Fc fusion, not shown: a dimerising Fc or GST; small tags and cut ends) LFTVTVPKELYIIEHGSNVTLECNFDTGSHVNLGAITASLQKVENDTSPHRERATLLEEQLPLGKASFHIPQVQVRDEGQYRCIIIYGDAWDYKYLTLK
27 | 26100 | 2.65 fold | variant PD-L2 IgV-Fc S39I, V89D (Fc fusion, not shown: a dimerising Fc or GST; small tags and cut ends) LFTVTVPKELYIIEHGSNVTLECNFDTGSHVNLGAITAILQKVENDTSPHRERATLLEEQLPLGKASFHIPQVQVRDEGQYQCIIIYGDAWDYKYLTLK
28 | 16000 | 1.62 fold | variant PD-L2 IgV-Fc S67L, V89D (Fc fusion, not shown: a dimerising Fc or GST; small tags and cut ends) LFTVTVPKELYIIEHGSNVTLECNFDTGSHVNLGAITASLQKVENDTSPHRERATLLEEQLPLGKALFHIPQVQVRDEGQYQCIIIYGDAWDYKYLTLK
29 | 71400 | 7.26 fold | variant PD-L2 IgV-Fc I13V, S39I, E44D, Q82R, V89D (Fc fusion, not shown: a dimerising Fc or GST; small tags and cut ends) LFTVTVPKELYIVEHGSNVTLECNFDTGSHVNLGAITAILQKVDNDTSPHRERATLLEEQLPLGKASFHIPQVQVRDEGQYRCIIIYGDAWDYKYLTLK
30 | 21600 | 2.19 fold | variant PD-L2 IgV-Fc I13V, H15Q, S67L, I86T (Fc fusion, not shown: a dimerising Fc or GST; small tags and cut ends) LFTVTVPKELYIVEQGSNVTLECNFDTGSHVNLGAITASLQKVENDTSPHRERATLLEEQLPLGKALFHIPQVQVRDEGQYQCIITYGVAWDYKYLTLK
31 | 529 | 0.05 fold | variant PD-L2 IgV-Fc S67L, I85F (Fc fusion, not shown: a dimerising Fc or GST; small tags and cut ends) LFTVTVPKELYIIEHGSNVTLECNFDTGSHVNLGAITASLQKVENDTSPHRERATLLEEQLPLGKALFHIPQVQVRDEGQYQCIFIYGVAWDYKYLTLK
32 | 3360 | 0.34 fold | variant PD-L2 IgV-Fc V89D (Fc fusion, not shown: a dimerising Fc or GST; small tags and cut ends) LFTVTVPKELYIIEHGSNVTLECNFDTGSHVNLGAITASLQKVENDTSPHRERATLLEEQLPLGKASFHIPQVQVRDEGQYQCIIIYGDAWDYKYLTLK
33 | 10400 | 1.06 fold | variant PD-L2 IgV-Fc I13V, Q72H, R76G, I86T (Fc fusion, not shown: a dimerising Fc or GST; small tags and cut ends) LFTVTVPKELYIVEHGSNVTLECNFDTGSHVNLGAITASLQKVENDTSPHRERATLLEEQLPLGKASFHIPHVQVGDEGQYQCIITYGVAWDYKYLTLK
